Biological target: Venezuelan equine encephalitis virus (VEEV) virus-like particles (Venezuelan equine encephalitis virus, …, UniProt P09592 813-1254)
Assay: SPR

B1: LDLRAD3(D1), cleaved monomeric ectodomain of mouse low-density lipoprotein receptor class A domain-containing 3, domain 1 (domain or fragment)
chain: not shown
Kd: 0.0582 µM

Reference: article PMC8550936 (2021)
